Where no end group is shown, it is not given here.
Target: MLL PHD3 finger (residues 1565-1627), GST cleaved (human, UniProt Q03164 1565-1627)
Test: other fluorescence titration

MLL PHD3 finger (residues 1565-1627), GST cleaved, sequence (Q03164 1565-1627): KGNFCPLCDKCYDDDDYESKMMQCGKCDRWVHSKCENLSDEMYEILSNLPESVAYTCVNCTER

fold lower affinity than for H3K4me3 [fold]	Binder
8	ARTK(Me2)QTARKSTG [H3K4me2 peptide (12-mer histone tail peptide)]
53	ARTK(Me)QTARKSTG [H3K4me1 peptide (12-mer histone tail peptide)]
